# In article PMC7211993:
# B1: complement factor H, P08603 19-1231 (natural protein)
# chain: EDCNELPPRRNTEILTGSWSDQTYPEGTQAIYKCRPGYRSLGNVIMVCRKGEWVALNPLRKCQKRPCGHPGDTPFGTFTLTGGNVFEYGVKAVYTCNEGYQLLGEINYRECDTDGWTNDIPICEVVKCLPVTAPENGKIVSSAMEPDREYHFGQAVRFVCNSGYKIEGDEEMHCSDDGFWSKEKPKCVEISCKSPDVINGSPISQKIIYKENERFQYKCNMGYEYSERGDAVCTESGWRPLPSCEEKSCDNPYIPNGDYSPLRIKHRTGDEITYQCRNGFYPATRGNTAKCTSTGWIPAPRCTLKPCDYPDIKHGGLYHENMRRPYFPVAVGKYYSYYCDEHFETPSGSYWDHIHCTQDGWSPAVPCLRKCYFPYLENGYNQNYGRKFVQGKSIDVACHPGYALPKAQTTVTCMENGWSPTPRCIRVKTCSKSSIDIENGFISESQYTYALKEKAKYQCKLGYVTADGETSGSITCGKDGWSAQPTCIKSCDIPVFMNARTKNDFTWFKLNDTLDYECHDGYESNTGSTTGSIVCGYNGWSDLPICYERECELPKIDVHLVPDRKKDQYKVGEVLKFSCKPGFTIVGPNSVQCYHFGLSPDLPICKEQVQSCGPPPELLNGNVKEKTKEEYGHSEVVEYYCNPRFLMKGPNKIQCVDGEWTTLPVCIVEESTCGDIPELEHGWAQLSSPPYYYGDSVEFNCSESFTMIGHRSITCIHGVWTQLPQCVAIDKLKKCKSSNLIILEEHLKNKKEFDHNSNIRYRCRGKEGWIHTVCINGRWDPEVNCSMAQIQLCPPPPQIPNSHNMTTTLNYRDGEKVSVLCQENYLIQEGEEITCKDGRWQSIPLCVEKIPCSQPPQIEHGTINSSRSSQESYAHGTKLSYTCEGGFRISEENETTCYMGKWSSPPQCEGLPCKSPPEISHGVVAHMSDSYQYGEEVTYKCFEGFGIDGPAIAKCLGEKWSHPPSCIKTDCLSLPSFENAIPMGEKKDVYKAGEQVTYTCATYYKMDGASNVTCINSRWTGRPTCRDTSCVNPPTVQNAYIVSRQMSKYPSGERVRYQCRSPYEMFGDEEVMCLNGNWTEPPQCKDSTGKCGPPPPIDNGDITSFPLSVYAPASSVEYQCQNLYQLEGNKRITCRNGQWSEPPKCLHPCVISREIMENYNIALRWTAKQKLYSRTGESVEFVCKRGYRLSSRSHTLRTTCWDGKLEYPTCAKR
# modifications: here or on the partner: malondialdehyde-acetaldehyde (MAA) / malondialdehyde (MDA) adducts; sites not stated
# Molecular target: MDA-modified bovine serum albumin (bovine), P02769
# Assay: MST; microscale thermophoresis with both binding partners in fluid phase
# Conditions: remark: other sources report otherwise
# MDA-modified bovine serum albumin (bovine), P02769, sequence (P02769 25-607): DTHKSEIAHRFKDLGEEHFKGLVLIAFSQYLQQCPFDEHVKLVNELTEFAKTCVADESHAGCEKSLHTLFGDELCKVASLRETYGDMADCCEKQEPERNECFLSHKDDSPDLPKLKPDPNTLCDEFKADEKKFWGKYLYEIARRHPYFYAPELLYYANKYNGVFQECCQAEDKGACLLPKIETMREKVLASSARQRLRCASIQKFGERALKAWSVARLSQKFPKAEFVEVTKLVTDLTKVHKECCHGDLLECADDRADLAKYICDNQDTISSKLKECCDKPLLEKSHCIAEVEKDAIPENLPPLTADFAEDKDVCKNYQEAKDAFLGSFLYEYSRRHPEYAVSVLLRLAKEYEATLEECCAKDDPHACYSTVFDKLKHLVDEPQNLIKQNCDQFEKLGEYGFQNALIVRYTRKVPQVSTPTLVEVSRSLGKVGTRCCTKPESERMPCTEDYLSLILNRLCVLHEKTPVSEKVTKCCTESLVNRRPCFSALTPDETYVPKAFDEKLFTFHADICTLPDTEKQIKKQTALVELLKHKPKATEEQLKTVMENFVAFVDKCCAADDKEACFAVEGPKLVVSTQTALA
binder,measurement,value
B1,Kd,2.44 µM
